Article PMC7835884
Where “and” joins values, the source holds several entries; their conditions need not be identical. Identical values can stand only once.

Columns and labels:
[1] = molecular target: N-terminal 6X-His tagged TfAcCCB (carboxyltransferase subunit of Thermobifida fusca YX acyl-CoA carboxylase) (Thermobifida fusca YX); assay: SEC; Ni-NTA purified holoenzyme from co-expression of all three subunits (wild-type or D427I TfAcCCB); Superdex 200 10/300 GL; 100 mM potassium phosphate pH 7.6, 0.75 mM DTT, 1 mM EDTA, 20% glycerol; apparent molecular weights against standards; peaks analysed by SDS-PAGE (Figure 2A, 2B)
[2] = molecular target: N-terminal 6X-His tagged TfAcCCB (carboxyltransferase subunit of Thermobifida fusca YX acyl-CoA carboxylase) (Thermobifida fusca YX); assay: SEC; Ni-NTA purified His-tagged TfAcCCB-TfAcCCE subcomplex or His-tagged TfAcCCA; Superdex 200 10/300 GL; 100 mM potassium phosphate pH 7.6, 0.75 mM DTT, 1 mM EDTA, 20% glycerol; apparent molecular weights against standards (Figure 2C, 2D)
[3] = molecular target: TfAcCCA (biotin carboxylase / biotin carboxyl carrier subunit of Thermobifida fusca YX acyl-CoA carboxylase), without tag (Thermobifida fusca YX); assay: SEC; Ni-NTA purified holoenzyme from co-expression of all three subunits (wild-type or D427I TfAcCCB); Superdex 200 10/300 GL; 100 mM potassium phosphate pH 7.6, 0.75 mM DTT, 1 mM EDTA, 20% glycerol; apparent molecular weights against standards; peaks analysed by SDS-PAGE (Figure 2A, 2B)
[4] = molecular target: N-terminal 6X-His tagged TfAcCCB (carboxyltransferase subunit of Thermobifida fusca YX acyl-CoA carboxylase) (Thermobifida fusca YX); assay: pull-down; subunits co-expressed in E. coli; Ni-NTA affinity chromatography via the His-tag on TfAcCCB; SDS-PAGE with Coomassie staining and densitometry, or Western blot with anti-S-tag antibody (Figure 1A, 1B)
[5] = molecular target: N-terminal 6X-His tagged TfAcCCB (carboxyltransferase subunit of Thermobifida fusca YX acyl-CoA carboxylase) (Thermobifida fusca YX)

Row | stoichiometry N [1] | stoichiometry N [2] | stoichiometry N [3] | stoichiometry N [4] [molar ratio] | specificity constant (Vmax/Km) of acyl-CoA carboxylation by purified TfAcCCB, made with or without co-expressed TfAcCCE, mixed in vitro with purified TfAcCCA (acetyl-, propionyl- and butyryl-CoA) [5] [fold] | Substance
1 | 6 and 9 and 3 | 6 and 12 and 18 |  |  |  | N-terminal 6X-His tagged TfAcCCB (carboxyltransferase subunit of Thermobifida fusca YX acyl-CoA carboxylase) (enzyme)
2 |  |  | 3 and 6 and 9 | 1 |  | TfAcCCA (biotin carboxylase / biotin carboxyl carrier subunit of Thermobifida fusca YX acyl-CoA carboxylase), without tag (enzyme)
3 |  |  |  | 1 | 20 | TfAcCCE (non-catalytic subunit of Thermobifida fusca YX acyl-CoA carboxylase), without tag (natural protein)
